# Test results as given in patent US20120251547A1 (Amgen, published 2012).
# B1: AMH19/AML19 (antibody, IgG2, V domains shown)
# VH: QVQLVQSGAEVKKPGASVKVSCKASGYTLTSYGISWVRQAPGQGLEWMGWISAYSGNTKYAQKFQGRVTMTTDTSTSTAYMELRSLRSDDTAVYYCARRQLALDYWGQGTLVTVSS
# VL: EIVMTQSPATLSVSPGERATLSCRASQSISSNLAWYQQKPGQAPRLLIYGASTRATGIPARFSDNGSGTEFTLTISSLQSEDFAVYFCQQYDTWPLTFGGGTKVEIK
# B2: AMH22/AML22 (antibody, IgG2, V domains shown)
# VH: QVQLVQSGAEVKKPGASVKVSCKASGYTFTRYGISWVRQAPGQGLEWMGWISAYSGNTNYAQKLQGRVTMTTDTSTSTAYMELRSLRSDDTAVYYCARRQLYFDYWGQGTLVTVSS
# VL: EIVMTQSPATLSVSPGERVTLSCRASQSVSSNLAWFQQKPGQAPRPLIYDASTRAAGIPARFSGSGSGTDFTLTISSLQSEDFAVYYCQQYDNWPLTFGGGTKVEIK
# notes: human mAb from IgG2 XenoMouse mice; also called AM-22; antibody I
# B3: AMH7/AML7 (antibody, IgG2, V domains shown)
# VH: QVQLVQSGAEVKKPGASVKVSCKASGYTLTRYGISWVRQAPGQGLEWMGWISAYNGNTNYAQKLQGRVTMTTDTSTSTAYMELRSLRSDDTAVYYCARRDYDILTGYYNGFDPWGQGTLVTVSS
# VL: DIQMTQSPSSLSASVGDRVTITCRASQGIRNDLGWYQQKPGKAPKRLIYAASSLQSGVPSRFSGSGSGTEFTLTISSLQPEDFATYYCLQHKSYPLTFGGGTKVEIK
# notes: human mAb from IgG2 XenoMouse mice; also called AM-7; antibody D
# B4: AMH6/AML6 (antibody, IgG2, V domains shown)
# VH: QVQLVQSGAEVKKPGASVKVSCKASGYTLTRYGISWVRQAPGQGLEWMGWISAYNGNTNYAQKLQGRVTMTTDTSTSTAYMELRSLRSDDTAVYYCARRDYDILTGYYNGFDPWGQGTLVTVSS
# VL: DIQMTQSPSSLSASVGDRVTITCRASQGIRNDLGWYQQKPGKAPKRLIYAASSLQSGVPSRFSGSGSGTEFTLTISSLQPEDFATYYCLQHKSYPLTFGGGTKVEIK
# notes: human mAb from IgG2 XenoMouse mice; also called AM-6; antibody E
# B5: AMH5/AML5 (antibody, IgG2, V domains shown)
# VH: QVQLQESGPGLVKPSETLPLTCTVSGGSIRSYYWSWIRQPAGKGLEWIGRIYRSGNTIYNPSLKSRVTMSIDTSKNQFSLTLSSVTAADTAVYYCARENYSESSGLYYYYGMDVWGQGTTVTVSS
# VL: DIQMTQSPSSLSASVGDRVTITCRASQGIRNDLGWYQQKPGKAPKRLIYAASSFQSGVPSRFSGSGSGTGFTLTISSLQPEDFATYYCLQHNSYPPTFGQGTKVEIK
# notes: human mAb from IgG2 XenoMouse mice; tested only as part of a non-clonal hybridoma supernatant; also called AM-5
# B6: AMH1/AML1 (antibody, IgG2, V domains shown)
# VH: QVQLQESGPGLVKPSETLSLTCTVSGGSISNYYWNWIRQSPGKGLEWIGDIYYSGSTNYNPSLKSRVTISVDTSKNQFSLKLSSVTTADTAVYYCARDGELANYYGSGSYQFYYYYGMDVWGQGTTVTVSS
# VL: DILMTQSPSSLSASVGDRVTITCRASQGIRNDLGWYQQKPGKAPKRLIYAASSLQSGVPSRFSGSGSGTEFTLTISSLQPEDFATYYCLQHNSNPFTFGPGTKVDIK
# notes: human mAb from IgG2 XenoMouse mice; also called AM-1; antibody H
# B7: AMH8/AML8 (antibody, IgG2, V domains shown)
# VH: QVQLVQSGAEVKKPGASVKVSCKASGNTFTGYGISWVRQAPGQGLEWMGWISAYNGNTNYAQNLQGRVTMTTDTSTSTAYMELRSLRSDDTAVYYCARRDYDILTGYYNGFDPWGQGTLVTVSS
# VL: DIQMTQSPSSLSASVGDRVTITCRASQGIRNDLGWYQQKPGKAPKRLIYAASSLQSGVPSRFSGSGSGTEFTLTISSLQPEDFATYYCLQHKSYPLTFGGGTKVEIK
# notes: human mAb from IgG2 XenoMouse mice; also called AM-8; antibody C
# B8: AMH4/AML4 (antibody, IgG2, V domains shown)
# VH: QVQLVESGGGVVQPGRSLRLSCAASGINFSSYGMHWVRQAPGKGLEWVAVIWYDGSNKHYADSVKGRFTISRDNSKNTLYLQMNSLRAEDTAVYYCARDTGVYWGQGTLVTVSS
# VL: not shown
# notes: human mAb from IgG2 XenoMouse mice; also called AM-4; antibody B
# B9: AMH10/AML10 (antibody, IgG2, V domains shown)
# VH: QVQLQESGPGLVKPSQTLSLTCTVSGGSISSGGYYWSWIRQHPGKGLEWIGYIYFSGSAYYNPSLKSRVAISVDTSKNQFSLKLSSVTAADTAVYYCAREYYDSSGYPDAFDIWGQGTMVTVSS
# VL: DIQMTQSPSSVSASVGDRVTITCRASQGIRSWLAWYQQKPGKAPKLLIFAASSLQSGVPSRFSGSGSGTEFTLTISSLQPEDFATYYCQQANNFPRTFGQGTKVEIK
# notes: human mAb from IgG2 XenoMouse mice; also called AM-10; antibody F
# Legend:
# [1] = target: T1, human IL-17RA, full-length, on cells (human, UniProt Q96F46 33-866); assay: cell-based or functional assay
# [2] = target: T1, human IL-17RA, full-length, on cells; assay: cell-based or functional assay; remark: listed apart in the source
# [3] = target: T2, cynomolgus IL-17RA, on cells (cynomolgus); assay: FACS competition: non-clonal supernatant inhibiting biotin-huIL-17A (competitor) binding to cyno IL-17RA+ CHO cells
# T2 construct: whole, on cells; also called CHO-cynoIL-17RA; cyno IL-17RA+ CHO cells
# huIL-17RA-FLAG-polyHis [4] = target: T3, huIL-17RA-FLAG-polyHis (human, UniProt Q96F46 33-320); assay: binning; IL-17RA held by bead mAb A
# T3 construct: also called IL-17RA-FLAG-pHis; wild-type IL-17RA
# Protocol: (§1) The method employed the Bio-Plex Workstation and software (BioRad, Hercules, Calif.), as well as reagents from Luminex® Corp. (Austin, Tex.). […] The mouse-anti-human IgG coating was evaluated and the beads quantified by FACS. Each bead code was separately incubated with 10 ul of anti-IL-17RA antibody for 1 hour at room temperature and then washed. The beads were pooled and then dispensed to a 96-well filter plate (Millipore, Billerica, Mass., product #MSBVN1250). […] The PE-tagged monovalent antibody will detect the presence of the second mAb added to the well, but not the first mAb captured by the monovalent mouse-anti-human IgG antibody. Beads were resuspended in 120u1 PBSAT and at least 100 events/bead code were collected on the Bio-Plex workstation as per the manufacturer's recommended protocol.
# huIL-17RA-FLAG-polyHis [5] = target: T3, huIL-17RA-FLAG-polyHis; assay: binning; IL-17RA held by bead mAb B
# Protocol: as §1
# huIL-17RA-FLAG-polyHis [6] = target: T3, huIL-17RA-FLAG-polyHis; assay: binning; IL-17RA held by bead mAb C
# Protocol: as §1
# huIL-17RA-FLAG-polyHis [7] = target: T3, huIL-17RA-FLAG-polyHis; assay: binning; IL-17RA held by bead mAb D
# Protocol: as §1
# huIL-17RA-FLAG-polyHis [8] = target: T3, huIL-17RA-FLAG-polyHis; assay: binning; IL-17RA held by bead mAb E
# Protocol: as §1
# huIL-17RA-FLAG-polyHis [9] = target: T3, huIL-17RA-FLAG-polyHis; assay: binning; IL-17RA held by bead mAb F
# Protocol: as §1
# huIL-17RA-FLAG-polyHis [10] = target: T3, huIL-17RA-FLAG-polyHis; assay: binning; IL-17RA held by bead mAb H
# Protocol: as §1
# huIL-17RA-FLAG-polyHis [11] = target: T3, huIL-17RA-FLAG-polyHis; assay: binning; IL-17RA held by bead mAb M
# Protocol: (§2) The method employed the Bio-Plex Workstation and software (BioRad, Hercules, Calif.), as well as reagents from Luminex® Corp. (Austin, Tex.). The manufacturers' basic protocols were followed except where noted below (see www.bio-rad.com and www.luminexcorp.com for details). […] The mouse-anti-human IgG coating was evaluated and the beads quantified by FACS. Each bead code was separately incubated with 10 ul of anti-IL-17RA antibody for 1 hour at room temperature and then washed. The beads were pooled and then dispensed to a 96-well filter plate (Millipore, Billerica, Mass., product #MSBVN1250). […] The PE-tagged monovalent antibody will detect the presence of the second mAb added to the well, but not the first mAb captured by the monovalent mouse-anti-human IgG antibody. Beads were resuspended in 120u1 PBSAT and at least 100 events/bead code were collected on the Bio-Plex workstation as per the manufacturer's recommended protocol.
# huIL-17RA-FLAG-polyHis [12] = target: T3, huIL-17RA-FLAG-polyHis; assay: binning; IL-17RA held by bead mAb P
# Protocol: as §1
# huIL-17RA-FLAG-polyHis [13] = target: T3, huIL-17RA-FLAG-polyHis; assay: binning; IL-17RA held by bead mAb G
# Protocol: as §1
# huIL-17RA-FLAG-polyHis [14] = target: T3, huIL-17RA-FLAG-polyHis; assay: binning; IL-17RA held by bead mAb I
# Protocol: as §1
# huIL-17RA-FLAG-polyHis [15] = target: T3, huIL-17RA-FLAG-polyHis; assay: binning; IL-17RA held by bead mAb J
# Protocol: as §2
# huIL-17RA-FLAG-polyHis [16] = target: T3, huIL-17RA-FLAG-polyHis; assay: binning; IL-17RA held by bead mAb K
# Protocol: as §1
# huIL-17RA-FLAG-polyHis [17] = target: T3, huIL-17RA-FLAG-polyHis; assay: binning; IL-17RA held by bead mAb L
# Protocol: as §1
# huIL-17RA-FLAG-polyHis [18] = target: T3, huIL-17RA-FLAG-polyHis; assay: binning; IL-17RA held by bead mAb N
# Protocol: as §2
# huIL-17RA-FLAG-polyHis [19] = target: T3, huIL-17RA-FLAG-polyHis; assay: binning; IL-17RA held by bead mAb O
# Protocol: as §1
# huIL-17RA-FLAG-polyHis [20] = target: T3, huIL-17RA-FLAG-polyHis; assay: binning; IL-17RA held by bead mAb Q
# Protocol: as §1
# huIL-17RA-FLAG-polyHis [21] = target: T3, huIL-17RA-FLAG-polyHis; assay: binning; IL-17RA held by bead mAb R
# Protocol: as §1
Binder,MFI [3],normalized MFI (huIL-17RA-FLAG-polyHis [4]),normalized MFI (huIL-17RA-FLAG-polyHis [5]),normalized MFI (huIL-17RA-FLAG-polyHis [6]),normalized MFI (huIL-17RA-FLAG-polyHis [7]),normalized MFI (huIL-17RA-FLAG-polyHis [8]),normalized MFI (huIL-17RA-FLAG-polyHis [9]),normalized MFI (huIL-17RA-FLAG-polyHis [10]),normalized MFI (huIL-17RA-FLAG-polyHis [11]),normalized MFI (huIL-17RA-FLAG-polyHis [12]),normalized MFI (huIL-17RA-FLAG-polyHis [13]),normalized MFI (huIL-17RA-FLAG-polyHis [14]),normalized MFI (huIL-17RA-FLAG-polyHis [15]),normalized MFI (huIL-17RA-FLAG-polyHis [16]),normalized MFI (huIL-17RA-FLAG-polyHis [17]),normalized MFI (huIL-17RA-FLAG-polyHis [18]),normalized MFI (huIL-17RA-FLAG-polyHis [19]),normalized MFI (huIL-17RA-FLAG-polyHis [20]),normalized MFI (huIL-17RA-FLAG-polyHis [21]),also measured
B1,,,,,,,,,,,,,,,,,,,,"IL-17A/HFF bioassay IC50, subclone 10 [1]: 0.22 nM; IL-17A/HFF bioassay IC50, subclone 11 [1]: 1.1 nM; IL-17A/HFF bioassay IC50, subclone 12 [1]: 0.5 nM; IL-17A/HFF IC50 [2]: 0.2 nM; IL-17A/lung fibroblast IC50 [2]: 0.22 nM; IL-17F/HFF IC50 [2]: 0.087 nM"
B2,18,,,,,,,,,,,,,,,,,,,
B3,,-233,684,217,207,192,269,3180,2980,5640,318,6650,3640,8680,4260,3840,5540,4690,3550,
B4,,-70.5,447,173,168,130,152,2540,1770,3530,334,4330,2420,5600,2660,2410,3310,2390,1660,
B5,9,,,,,,,,,,,,,,,,,,,
B6,11,,,,,,,,,,,,,,,,,,,
B7,,-178,816,260,264,163,239,2950,2880,5960,346,6720,3590,8220,3540,3630,5520,5500,3950,
B8,,-326,453,150,213,182,173,6790,1300,5020,235,3710,1400,4970,1980,1950,2640,8280,5880,
B9,,114,545,253,179,175,187,3970,1020,1720,342,3110,2120,4110,1720,1510,2630,1650,1120,
